Source: patent US9567641B2, “Combination therapy for the treatment of cancer using an anti-C-met antibody” (SAMSUNG ELECTRONICS CO., LTD., priority 2013, dated 2017)

Tests used:
Type in all cases: cell-based
[1] = tested on: HCC1806 breast cancer cells; test: Cell viability, CellTiter Glo, combination with L3-1Y/IgG2 antibody
Method: (§1) The efficacy of the combination administration of ITGB3 siRNA and L3-1Y/IgG2 antibody was examined in a breast cancer cell line on which the anti-c-Met antibody alone has no effects. For this, HCC1806 (ATCC, CRL-2335) and HCC1954 (ATCC, CRL-2338) cells were used.
(§2) As a control group, All Negative control siRNA (Qiagen, cat. no. 1027281) was used, and as a target siRNA, a mixture of two kinds of siRNAs (see Table 7) that had effects during the screening was used. Transfection was carried out by the same procedures as Example 3.1 and after 24 hours, the cultured cells were treated with L3-1Y/IgG2 antibody at 0 ug/ml, 0.016 ug/ml, 0.08 ug/ml, 0.4 ug/ml, or 2 ug/ml. 72 hours later after the treatment, 100 uL of CellTiter Glo solution (Promega, G7572) was added to each well, which was allowed to stay at a room temperature for 30 min. The number of cells was counted via luminescence signals, which were recorded using Envision 2104 Multi-label Reader (Perkin Elmer).
To verify the effect of the combination therapy using ITGB3 inhibitor and anti-c-Met antibody in breast cancer cells on which the anti-c-Met antibody has no effects, HCC1806 (ATCC, CRL-2335) cells were used. The HCC 1806 cells are a cell line known to have high amounts of c-Met.
5000 cells of HCC1806 cells were seeded onto a 96-well plate, and 24 hours after, the plate was treated with L3-1Y/IgG2 antibody and an ITGB3 inhibitor, cilengitide (Merck KGaA, EMD 121974). 72 hours later after the treatment, a change in the number of cells was measured using CellTiter Glo assay. Cilengitide was treated at a fixed concentration of 10 uM, and the L3-1Y/IgG2 antibody was treated by ⅕ dilution each time starting from 2 ug/ml. For comparison, the same test was conducted using L3-1Y/IgG2 antibody alone.
The efficacy of combination administration was examined in a breast cancer cell line on which the anti-c-Met antibody has no effects. For this, HCC1806 (ATCC, CRL-2335) cells were used.
5000 HCC1806 cells were seeded onto a 96-well plate and 24 hours after, the plate was treated with L3-1Y/IgG2 antibody and an AKT inhibitor, MK-2206 (Merck & Co Inc) and 72 hours later after the antibody treatment, a change in the number of cells was measured using CellTiter Glo assay. MK-2206 was treated at a fixed concentration of 10 uM, and the L3-1Y/IgG2 antibody was treated by ⅕ dilution each time starting from 2 ug/ml. For comparison, the same test was conducted using L3-1Y/IgG2 antibody alone.

[2] = tested on: MKN45 gastric cancer cell line with acquired resistance against L3-1Y/IgG2 antibody; test: Cell viability, CellTiter Glo, resistance-acquired cell line
Method: To see whether the treatment RAF1 siRNA can overcome resistance acquired due to the repetitive treatment of an antibody, tests were carried out using MKN45 gastric cancer cell line which had been treated by L3-1Y/IgG2 antibody for 3 months or longer and acquired resistance against it. The resistance-acquired MKN45 gastric cancer cell line was prepared as follows: MKN45 cells (JCRB, JCRB0254) were treated with L3-1Y/IgG2 antibody in amounts being increased over 3 months or longer. The amount of L3-1Y/IgG2 antibody to be treated started from its initial treatment concentration of 1 ug/ml and was increased up to 10 ug/ml until resistance occurred. To confirm the acquisition of L3-1Y/IgG2 antibody resistance, the resistance-acquired clones were treated or not treated with L3-1Y/IgG2 antibody and then incubated, followed by CTG assays.
As a control group, All Negative control siRNA (Qiagen, cat. no. 1027281) was used, and as a target siRNA, a mixture of two kinds of siRNAs (see Table 7) that had effects during the screening was used. […]
(§3) 5000 cells of MKN45 cells which have acquired resistance against L3-1Y/IgG2 antibody were seeded onto a 96-well plate, and 24 hours after, the plate was treated with L3-1Y/IgG2 antibody and an ITGB3 inhibitor, cilengitide (Merck KGaA, EMD 121974). 72 hours later after the treatment, a change in the number of cells was measured using CellTiter Glo assay. The MKN45 cells which have acquired resistance against L3-1Y/IgG2 antibody were prepared referring to Example 4.3. Cilengitide was treated at a fixed concentration of 10 uM, and the L3-1Y/IgG2 antibody was treated by ⅕ dilution each time starting from 2 ug/ml. For comparison, the same test was conducted using L3-1Y/IgG2 antibody alone.
as §3, with “AKT” for “ITGB3”, “MK-2206” for “cilengitide”, “& Co Inc).” for “KGaA, EMD 121974).”, “MK-2206” for “Cilengitide”, “5” for “10”
To verify whether or not the resistance acquired by repetitive administration of anti-c-Met antibody can be overcome by BCL2L1 inhibition, L3-1Y/IgG2 antibody resistance acquired MKN45 cells, where the resistance against L3-1Y/IgG2 antibody is acquired by treating MKN45 gastric cancer cells (JCRB, JCRB0254) with the L3-1Y/IgG2 antibody for at least 3 months, were used. The L3-1Y/IgG2 antibody resistance acquired MKN45 gastric cancer cells were prepared referring to Example 4.3. […]

[3] = tested on: HCC1954 breast cancer cells; test: Cell viability, CellTiter Glo, combination with L3-1Y/IgG2 antibody; settings: L3-1Y/IgG2 antibody alone (negative control siRNA)
Method: as §1, §2

[4] = L3-1Y/IgG2 antibody alone (1/5 dilutions from 2 ug/ml), 72 h
[5] = L3-1Y/IgG2 antibody alone (negative control siRNA)

B1: L3-1Y/IgG2: anti-c-Met antibody: huAbF46-H4-A1 heavy chain variable region, human IgG2 hinge and constant region, kappa light chain with H36Y (antibody)
heavy: EVQLVESGGGLVQPGGSLRLSCAASGFTFTDYYMSWVRQAPGKGLEWLGFIRNKANGYTTEYSASVKGRFTISRDNSKNTLYLQMNSLRAEDTAVYYCARDNWFAYWGQGTLVTVSSASTKGPSVFPLAPCSRSTSESTAALGCLVKDYFPEPVTVSWNSGALTSGVHTFPAVLQSSGLYSLSSVVTVPSSNFGTQTYTCNVDHKPSNTKVDKTVERKCCVECPPCPAPPVAGPSVFLFPPKPKDTLMISRTPEVTCVVVDVSHEDPEVQFNWYVDGVEVHNAKTKPREEQFNSTFRVVSVLTVVHQDWLNGKEYKCKVSNKGLPAPIEKTISKTKGQPREPQVYTLPPSREEMTKNQVSLTCLVKGFYPSDIAVEWESNGQPENNYKTTPPMLDSDGSFFLYSKLTVDKSRWQQGNVFSCSVMHEALHNHYTQKSLSLSPGK
light: DIQMTQSPSSLSASVGDRVTITCKSSQSLLASGNQNNYLAWYQQKPGKAPKMLIIWASTRVSGVPSRFSGSGSGTDFTLTISSLQPEDFATYYCQQSYSRPYTFGQGTKVEIKRTVAAPSVFIFPPSDEQLKSGTASVVCLLNNFYPREAKVQWKVDNALQSGNSQESVTEQDSKDSTYSLSSTLTLSKADYEKHKVYACEVTHQGLSSPVTKSFNRGEC
did not occur: growth inhibitory effect (cell viability) [1, 4] | cancer cell growth inhibitory efficacy (cell viability) [1, 5] | growth inhibitory effect (cell viability) [2, 4] | cancer cell growth inhibitory efficacy (cell viability) [2, 5] | cancer cell growth inhibitory efficacy (cell viability) [3]
